# From the nanobody polyreactivity screen of Harvey et al. (2022)
# Assay: yeast display, Sf9 membrane polyspecificity reagent, FACS + sequencing; frameworks hold sequencing errors
# In short: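 Galactose induction of a Saccharomyces cerevisiae BJ5465 synthetic nanobody display library ran 36–48 hours. The cells were then stained for 1 hour at 4 °C with 10% biotinylated, detergent-solubilized Sf9 membrane reagent, pulled down on streptavidin microbeads and FACS-sorted into low and high (top ~1%) gates on expression and reagent-binding fluorescence. Labels for polyreactivity follow the gate of origin.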
row,Sequence,polyreactivity (PSR sort gate)
1,QVQLVESGGGLVQAGGSLRLSCAASGFIFGYNAMGGYRLAPGKERELVAAISSYGGSPYYADSVKGRFTISRDNAKNTVYLQMNTLKPEDTAVYYWAARPVALRKYDYWGQGTQLTVSS,low polyreactivity
2,QVQLVESGGGLVQAGGSLRLSCAASGFIFGYNAMGWYRQAAGKERELVAAISYSGGGTYYADSVKGRFTISRDNAKNTVYLQMNSLKPEDTAVYYCAARSWGRRSYDYWGQGTQVTVSS,high polyreactivity
3,QVQLVESGGGLVQAGGSLRLSCAASGFIFGYNAMGWYRQAPGIERELVAAITASGGSTYYADSVKGRFTISLDNAKNTVYLQLNSLIPEDTAVYYCATVLRKNGERGNRLYYWGQGTQVTVSS,high polyreactivity
4,QVQLVESGGGLVQAGGSLRLSCAASGFIFGYNAMGWYRQAPGKERELVASITINDGSTYYADSVKGRFTISRDNAKNTVYLQMNCLKPEDTAVYYCAAGGWYSLDILPYRYDYWGQGTQVTVSS,low polyreactivity
5,QVQLVESGGGLVQAGGSLRLSCAASGFIFGYNGMGWYRQAPGKERELVAGITYSDGSTYYADSVKGRFTISRDNAKNTVYLQMNSLKPEDTAVYYCAVEVGYTDSPYSYDYWGQGTQVTVSS,low polyreactivity
6,QVQLVESGGGLVQAGGSLRLSCAASGFIFGYYAMGWYRQAPGKERELVAAINRSGSTYYADSVKGPFTISRDNAKNTVYLQMNSLKPEDTAVYYCKLRHYVGLSKGDYWGQGTQVTVSS,high polyreactivity
7,QVQLVESGGGLVQAGGSLRLSCAASGFIFGYYAMGWYRQAPGKERELVAAISWSGGSTYYADSVKGRFTISRDKAKNTVYLQMNSLKPEDTAVYYCATASPSTRYGRLGDYWGQGTQVTVSS,low polyreactivity
8,QVQLVESGGGLVQAGGSLRLSCAASGFIFGYYAMGWYRQAPGKERELVAAISWSGGSTYYADSVKGRFTISRDNAKNTVYLQMNSLKPEDTAVYYCATASPSTRYGRLGDYWGQGTQVTVSS,low polyreactivity
9,QVQLVESGGGLVQAGGSLRLSCAASGFIFGYYAMGWYRQAPGKERELVAAITGGGSTYYADSVKGRFTISRDNAKNTVYLQMNSLKPEDTAVYDCNADYGDGEYDYWGQGTQVTVSS,low polyreactivity
10,QVQLVESGGGLVQAGGSLRLSCAASGFIFHDNAMGWYRQAPGKERELVAAIRSTGSTNYADSVKGRFTISRDNAKNTVYLQMNSLKPEDTAVYYCNAGKYQSDTPSLDPTEYPAFYYWGQGTQVTVSS,low polyreactivity
11,QVQLVESGGGLVQAGGSLRLSCAASGFIFHLYGMGWYRQAPGKERELVAAISSGGRTYYADSVKGRFTISRDNAKNTVYLQMNSLKPEDTAVYYCAVYVAYLYSYYYWGQGTQVTVSS,low polyreactivity
12,QVQLVESGGGLVQAGGSLRLSCAASGFIFHNYVMGWYRQAPGKERELVAVISGSGGSTYYADSVKGRFTISRDNAKNTVYLQMNSLKPEDTAVYYCAADNVYGYDYWGQGTQVTVSS,low polyreactivity
13,QVQLVESGGGLVQAGGSLRLSCAASGFIFHRYAMGWYRQAPGKERELVAAISSSGGSTYYADSVKGRFTISRDNAKNTVYLQMNSLKPEDTAVYYCAAEEEEFIYDYWGQGTQVTVSS,high polyreactivity
14,QVQLVESGGGLVQAGGSLRLSCAASGFIFHSYAMRWYRQAPGKERELVAAITHSGGRTYYADCVKGRFTISRDNAKNTVYLQMNSLKPEDTAVYYCAAVTRRHEYDYWGQGSQVTVSS,high polyreactivity
15,QVQLVESGGGLVQAGGSLRLSCAASGFIFHTYAMGWYRQAPGKEREFVAAISGGTSSTYYADSVKGRFTISRDNAKNTVYLQMNSLKPEDTAVYYCAARSRRGGYPRYYYWGQGTQVTVSS,high polyreactivity
16,QVQLVESGGGLVQAGGSLRLSCAASGFIFHWNAMGWYRQAPGKERELVAAITWRGTNTYYADSVKGRFTISRDNAKNTVYLQMNSLKPEDTAVYYCAGTRNPWPTSFDYWGQGTQVTVSS,low polyreactivity

row,Sequence,polyreactivity (PSR sort gate)
1,QVQLVESGGGLVQAGGSLRLSCAASGFIFIHNAMGWYRQAPGKERELVAAISYSGGSTYYADSVKGRFTISRDNAKNTVYLQMNSLKPEDTAVYYCNRVQYYRADRMDYWGQGTQVTVSS,low polyreactivity
2,QVQLVESGGGLVQAGGSLRLSCAASGFIFIQYAMGWYRQAPGKERELVAAISRSGGSTSYADSVKGRFTISRDNAKNTVYLQMNSLKPEDTAVYYCNRYYGSSGHGRPNEKYGYWGQGTQVTVSS,low polyreactivity
3,QVQLVESGGGLVQAGGSLRLSCAASGFIFITVNAMGWYRQAPGKEREFVAAITRSGTGTYYADSVKGRFTISRDNAKNTVYLQMNSLKPEDTAVYYCAADATSTGAYDYWGQGTQVTVSS,low polyreactivity
4,QVQLVESGGGLVQAGGSLRLSCAASGFIFKGNAMGWYRQAPGKERELVAAITNRGGGTYYADSVKGRFTISRDNAKNTVYLQMNSLKPEDTAVYYCAKAYTRPFHPYDYWGQGTQVTVSS,high polyreactivity
5,QVQLVESGGGLVQAGGSLRLSCAASGFIFKHNALGWYRQAPGKERELVAAISWSGDSTYYADSVKGRFTISRDNAKNTVYLQMNSLKPEDTAVYYCAAVRALRKVRDYYYWGQGTQVTVSS,high polyreactivity
6,QVQLVESGGGLVQAGGSLRLSCAASGFIFKPYAMGWYRQAPGKERELVAAITYSGSSTYYADSVKGRFTISRDNAKNTVYLQMNSLKPEDTAVYYCAARDWSHPRRLFYWGQGTQVTVSS,high polyreactivity
7,QVQLVESGGGLVQAGGSLRLSCAASGFIFKPYDMGWYRQARGKERELVAAISWTGTSTYYADSVKGRFTISRDNAKNTVYLQMNSLKPEDTAVYYCAADFYGGFAHEYWGQGTQVTVSS,low polyreactivity
8,QVQLVESGGGLVQAGGSLRLSCAASGFIFKRYTMGWYRQAPGKERELVAAISKSGSSTYYADSVKGRFTISRDNAKNTVYLQMHSLKPEDTAVYYCAAGWGWSSFGYGYWGQGTQVTVSS,high polyreactivity
9,QVQLVESGGGLVQAGGSLRLSCAASGFIFKTYAMGWYRQAPGKERELVARISKSSGNTYYADSVKGRFTISRDNAKNTVYLQMNSLKPEDTAVYYCNRRHTSKNAYTSPSEYDYWGQGTQVTVSS,low polyreactivity
10,QVQLVESGGGLVQAGGSLRLSCAASGFIFKYNAMGWYRQAPGKERELVAAISRSGGRTYYADSVKGRFTISRDNAKNTVSLQMNSLKPEDTAVYYCAARVGVSGFEYDYWGQGTQVTVSS,high polyreactivity
11,QVQLVESGGGLVQAGGSLRLSCAASGFIFLAYAMGWYRQAPGKERELVAAISRSGGRTYYADSVKGRFTISRDNAKNTVYLQMNSLKPEDTAVYYCAPLANGTNGFYYWGQGTQVTVSS,high polyreactivity
12,QVQLVESGGGLVQAGGSLRLSCAASGFIFLAYAMGWYRQAPGKERELVAAISSGSSTSYADSVKGRFTISRDNAKNTVYLQMNSLKPEDTAVYYCNAVPSFANLTWESYDYWGQGTQVTVSS,low polyreactivity
13,QVQLVESGGGLVQAGGSLRLSCAASGFIFLDYAMGWYRQAPGKERELVAAISSRGARTYYADSVKGRFTISRDNAKNTVYLQMNSLKPEDTAVYYCAARGPLVRYGYWGHGTQVTVSS,high polyreactivity
14,QVQLVESGGGLVQAGGSLRLSCAASGFIFLGNAKGWYRQATGKERELVAAISSGGSTYADSVKGRFTISRDNAKNTVYLQMNSLKPEDTAVYYCAVDRAFRAQNYHEYDYWGQGTQVTVSS,low polyreactivity
15,QVQLVESGGGLVQAGGSLRLSCAASGFIFLGNAMGWYRQAPGKERELVAAISSGGSTYADSVKGRFTISRDNAKNTVYLQMNSLKPEDTAVYYCNTEDYTQYEPGYYPPNYYWGQGTQVTVSS,low polyreactivity
16,QVQLVESGGGLVQAGGSLRLSCAASGFIFLLYDMGWYRQAPGKERELVAAISRSGGSTYYADSVKGRFTISRDNAKNTVYLQMNSLKPEDTAVYYCNAAYRPWRGGYYPVGYYYWGQGTQVTVSS,high polyreactivity
